Experimental data as given in article PMC12381204.

B1: polyrA 30-mer (ssRNA)
RNA: AAAAAAAAAAAAAAAAAAAAAAAAAAAAAA
B2: SL4 RNA (structured_RNA)
RNA: CUGUGUGGCUGUCACUCGGCUGCAUGCUUAGUGCACUCACGCAG

Biological target: Nucleocapsid protein (N), unmodified (SARS-CoV-2, UniProt P0DTC9 2-419)
Experiment: fluorescence polarization
Conditions: protein: recombinant, tags: N-terminal 6xHis-TEV site, cleaved by TEV (Gly left before S2), chain copies: 2, label: 5'-FAM

Row | Binder | Kd (single strand, unstructured) [nM] | Kd (hairpin) [nM]
1 | B1 | 71.7 ± 0.8 | –
2 | B2 | – | 10.9 ± 1.4
